Experimental findings from the supplement of paper PMC9112550, “Optimization of the antimicrobial peptide Bac7 by deep mutational scanning” (BMC Biology, 2022) are described below.
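Further: peptides expressed intracellularly from a pBAD plasmid library in pooled LB shake-flask culture, induced with 0.3% L-arabinose, DNA abundance read by NGS, three biological replicates, DESeq2 with apeglm shrinkage.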

For this data set, the system named is Escherichia coli TOP10. Description: shrunken log2 fold change of peptide-encoding DNA abundance (4.5 h post-induction vs induction); higher = less antimicrobial activity (less host growth inhibition). To be noted: time post-induction: 4.5 h; library: site-saturation at positions 5, 18, 19, 20.
Consider RRIRDRPPRLPRPRPRPCMCPRP, for which the “shrunken log2 fold change” value is -0.0426.

In the case of RRIRWRPPRLPRPRPRPLAVPRP, the “shrunken log2 fold change” value turned out to be 0.541.

For RRIRWRPPRLPRPRPRPVYNPRP, the “shrunken log2 fold change” value was -0.817.

For RRIRARPPRLPRPRPRPRVKPRP, the “shrunken log2 fold change” value was 0.488.

Take RRIRKRPPRLPRPRPRPCNYPRP: the “shrunken log2 fold change” value was -0.0312.

Take RRIRGRPPRLPRPRPRPDHNPRP: the “shrunken log2 fold change” value is 0.0326.

Turning to RRIRKRPPRLPRPRPRPTTIPRP, the “shrunken log2 fold change” value turned out to be 0.259.

Regarding RRIRPRPPRLPRPRPRPWTKPRP, the “shrunken log2 fold change” value stood at 0.0459.

With RRIRRRPPRLPRPRPRPFFPPRP, the “shrunken log2 fold change” value was 0.263.

As to RRIRCRPPRLPRPRPRPAPQPRP, the “shrunken log2 fold change” value amounted to 0.829.

As for RRIRCRPPRLPRPRPRPKPTPRP, the “shrunken log2 fold change” value was found to be 0.128.

For the sequence RRIRKRPPRLPRPRPRPFNPPRP, the “shrunken log2 fold change” value is -0.0407.

RRIRQRPPRLPRPRPRPNVDPRP: the “shrunken log2 fold change” value is -0.0229.

RRIRHRPPRLPRPRPRPGPNPRP: the “shrunken log2 fold change” value came out at 0.813.

With RRIRKRPPRLPRPRPRPILCPRP, the “shrunken log2 fold change” value was 0.00753.

For the sequence RRIRFRPPRLPRPRPRPYWYPRP, the “shrunken log2 fold change” value is -0.675.

Consider RRIRMRPPRLPRPRPRPYHWPRP, for which the “shrunken log2 fold change” value is -0.101.

Take RRIRGRPPRLPRPRPRPTEQPRP: the “shrunken log2 fold change” value stood at 0.883.

On to RRIRMRPPRLPRPRPRPTYYPRP, for which the “shrunken log2 fold change” value is -0.554.

Take RRIRARPPRLPRPRPRPRDIPRP: the “shrunken log2 fold change” value was found to be 0.0507.

As to RRIRKRPPRLPRPRPRPMHVPRP, the “shrunken log2 fold change” value is -0.0434.

As to RRIRNRPPRLPRPRPRPYKAPRP, the “shrunken log2 fold change” value is -0.388.

With RRIRIRPPRLPRPRPRPQSHPRP, the “shrunken log2 fold change” value was -0.383.

Take RRIRHRPPRLPRPRPRPPPQPRP: the “shrunken log2 fold change” value is 0.844.

Consider RRIRIRPPRLPRPRPRPMNPPRP, for which the “shrunken log2 fold change” value was -0.372.

Consider RRIRTRPPRLPRPRPRPHTQPRP, for which the “shrunken log2 fold change” value was -0.0664.

On to RRIRWRPPRLPRPRPRPREFPRP, for which the “shrunken log2 fold change” value was found to be 0.349.

With RRIRVRPPRLPRPRPRPWLQPRP, the “shrunken log2 fold change” value is -0.0274.

As to RRIRKRPPRLPRPRPRPEHRPRP, the “shrunken log2 fold change” value was -0.0428.

In the case of RRIRARPPRLPRPRPRPYWDPRP, the “shrunken log2 fold change” value was -0.964.

RRIRVRPPRLPRPRPRPGARPRP: the “shrunken log2 fold change” value is 0.198.

For the sequence RRIRNRPPRLPRPRPRPTVSPRP, the “shrunken log2 fold change” value was -0.268.

Consider RRIRVRPPRLPRPRPRPDQRPRP, for which the “shrunken log2 fold change” value is 0.128.

Consider RRIRGRPPRLPRPRPRPHYMPRP, for which the “shrunken log2 fold change” value came out at 0.00569.

As for RRIRSRPPRLPRPRPRPLAQPRP, the “shrunken log2 fold change” value worked out at 0.261.

As for RRIRDRPPRLPRPRPRPFGLPRP, the “shrunken log2 fold change” value was -0.259.

In the case of RRIRKRPPRLPRPRPRPKNPPRP, the “shrunken log2 fold change” value came out at 0.0739.

With RRIRFRPPRLPRPRPRPCQTPRP, the “shrunken log2 fold change” value is -0.414.

Consider RRIRPRPPRLPRPRPRPKAAPRP, for which the “shrunken log2 fold change” value is 0.386.

Take RRIRGRPPRLPRPRPRPTTTPRP: the “shrunken log2 fold change” value amounted to 1.07.

Consider RRIRGRPPRLPRPRPRPSTMPRP, for which the “shrunken log2 fold change” value came out at 0.21.

For the sequence RRIRCRPPRLPRPRPRPFFTPRP, the “shrunken log2 fold change” value is -0.0887.

In the case of RRIRCRPPRLPRPRPRPQWIPRP, the “shrunken log2 fold change” value was -0.692.

In the case of RRIRDRPPRLPRPRPRPAYIPRP, the “shrunken log2 fold change” value is -0.0656.

In the case of RRIRQRPPRLPRPRPRPHQMPRP, the “shrunken log2 fold change” value stood at 0.0681.

For RRIRLRPPRLPRPRPRPSMYPRP, the “shrunken log2 fold change” value was -0.261.

As for RRIRGRPPRLPRPRPRPWKPPRP, the “shrunken log2 fold change” value was 0.0444.

With RRIRMRPPRLPRPRPRPTGNPRP, the “shrunken log2 fold change” value amounted to 0.496.

On to RRIRARPPRLPRPRPRPQTSPRP, for which the “shrunken log2 fold change” value came out at 0.00801.

Regarding RRIRKRPPRLPRPRPRPAINPRP, the “shrunken log2 fold change” value turned out to be 0.126.

Consider RRIRARPPRLPRPRPRPLYFPRP, for which the “shrunken log2 fold change” value was -0.282.

Regarding RRIRLRPPRLPRPRPRPINGPRP, the “shrunken log2 fold change” value is 0.015.

As for RRIRHRPPRLPRPRPRPVTAPRP, the “shrunken log2 fold change” value came out at 0.0123.

Turning to RRIRYRPPRLPRPRPRPFMAPRP, the “shrunken log2 fold change” value was -0.773.

For RRIRYRPPRLPRPRPRPVVDPRP, the “shrunken log2 fold change” value was -0.0233.

RRIRRRPPRLPRPRPRPGIVPRP: the “shrunken log2 fold change” value is -0.0478.

With RRIRRRPPRLPRPRPRPKHKPRP, the “shrunken log2 fold change” value was found to be 0.339.

For RRIRCRPPRLPRPRPRPNYLPRP, the “shrunken log2 fold change” value was -0.797.

With RRIRFRPPRLPRPRPRPDVAPRP, the “shrunken log2 fold change” value was 0.239.

As for RRIRFRPPRLPRPRPRPQDTPRP, the “shrunken log2 fold change” value is -0.46.

On to RRIRFRPPRLPRPRPRPSYDPRP, for which the “shrunken log2 fold change” value is -0.0248.

For RRIRARPPRLPRPRPRPGQRPRP, the “shrunken log2 fold change” value is 0.107.

Consider RRIRYRPPRLPRPRPRPRYFPRP, for which the “shrunken log2 fold change” value is -0.212.

Take RRIRLRPPRLPRPRPRPNQWPRP: the “shrunken log2 fold change” value was -0.117.

For RRIRGRPPRLPRPRPRPPNGPRP, the “shrunken log2 fold change” value is 0.534.

With RRIRVRPPRLPRPRPRPKLAPRP, the “shrunken log2 fold change” value turned out to be 0.274.

In the case of RRIRERPPRLPRPRPRPCYWPRP, the “shrunken log2 fold change” value was -0.361.

RRIRFRPPRLPRPRPRPRIQPRP: the “shrunken log2 fold change” value was found to be 0.018.

As to RRIRQRPPRLPRPRPRPCCKPRP, the “shrunken log2 fold change” value was -0.00783.

Consider RRIRYRPPRLPRPRPRPRPFPRP, for which the “shrunken log2 fold change” value is -0.104.

On to RRIRNRPPRLPRPRPRPAPIPRP, for which the “shrunken log2 fold change” value was determined as 0.169.

As for RRIRIRPPRLPRPRPRPSGIPRP, the “shrunken log2 fold change” value is -0.469.

Take RRIRYRPPRLPRPRPRPQQLPRP: the “shrunken log2 fold change” value is -0.181.

As for RRIRVRPPRLPRPRPRPNGWPRP, the “shrunken log2 fold change” value was determined as 0.0568.

With RRIRPRPPRLPRPRPRPYRTPRP, the “shrunken log2 fold change” value was -0.111.

Consider RRIRLRPPRLPRPRPRPTHVPRP, for which the “shrunken log2 fold change” value stood at 0.329.

With RRIRPRPPRLPRPRPRPDRWPRP, the “shrunken log2 fold change” value came out at 0.219.

Regarding RRIRWRPPRLPRPRPRPFRWPRP, the “shrunken log2 fold change” value worked out at 0.0815.

For RRIRTRPPRLPRPRPRPVVPPRP, the “shrunken log2 fold change” value was -0.314.

As to RRIRGRPPRLPRPRPRPNHTPRP, the “shrunken log2 fold change” value is -0.144.

As to RRIRSRPPRLPRPRPRPPEMPRP, the “shrunken log2 fold change” value turned out to be 0.265.

As to RRIRRRPPRLPRPRPRPWSSPRP, the “shrunken log2 fold change” value came to 0.0446.

As for RRIRPRPPRLPRPRPRPNWFPRP, the “shrunken log2 fold change” value turned out to be 0.283.

RRIRWRPPRLPRPRPRPWELPRP: the “shrunken log2 fold change” value was -0.0481.

Take RRIRIRPPRLPRPRPRPCTEPRP: the “shrunken log2 fold change” value is -0.0706.

Take RRIRTRPPRLPRPRPRPCIAPRP: the “shrunken log2 fold change” value was -0.226.

Consider RRIRIRPPRLPRPRPRPVLMPRP, for which the “shrunken log2 fold change” value was -0.229.

With RRIRWRPPRLPRPRPRPGVVPRP, the “shrunken log2 fold change” value was determined as 0.576.

Turning to RRIRRRPPRLPRPRPRPWPVPRP, the “shrunken log2 fold change” value is 0.0907.

In the case of RRIRLRPPRLPRPRPRPRRNPRP, the “shrunken log2 fold change” value was 0.0956.

As for RRIRQRPPRLPRPRPRPIKIPRP, the “shrunken log2 fold change” value was -0.0595.

Regarding RRIRMRPPRLPRPRPRPNIAPRP, the “shrunken log2 fold change” value is 0.397.

Turning to RRIRMRPPRLPRPRPRPENPPRP, the “shrunken log2 fold change” value stood at 2.79.

As to RRIRLRPPRLPRPRPRPDDMPRP, the “shrunken log2 fold change” value was determined as 0.0411.

Turning to RRIRYRPPRLPRPRPRPHSLPRP, the “shrunken log2 fold change” value was -0.184.

For RRIRTRPPRLPRPRPRPCEWPRP, the “shrunken log2 fold change” value amounted to 0.013.

Turning to RRIRGRPPRLPRPRPRPFKKPRP, the “shrunken log2 fold change” value came out at 0.0278.

Take RRIRARPPRLPRPRPRPNTFPRP: the “shrunken log2 fold change” value was -0.0206.

As to RRIRNRPPRLPRPRPRPMVEPRP, the “shrunken log2 fold change” value is -0.481.

On to RRIRDRPPRLPRPRPRPQCKPRP, for which the “shrunken log2 fold change” value was 0.0759.

Turning to RRIRHRPPRLPRPRPRPCSAPRP, the “shrunken log2 fold change” value is -0.473.

With RRIRARPPRLPRPRPRPDKQPRP, the “shrunken log2 fold change” value was -0.0794.

Regarding RRIRARPPRLPRPRPRPPGAPRP, the “shrunken log2 fold change” value was determined as 1.11.

RRIRERPPRLPRPRPRPVKWPRP: the “shrunken log2 fold change” value is -0.129.

With RRIRQRPPRLPRPRPRPRAHPRP, the “shrunken log2 fold change” value was 0.638.

Turning to RRIRARPPRLPRPRPRPSIVPRP, the “shrunken log2 fold change” value is -0.103.

RRIRERPPRLPRPRPRPCFYPRP: the “shrunken log2 fold change” value was -0.43.

On to RRIRVRPPRLPRPRPRPSASPRP, for which the “shrunken log2 fold change” value is -0.2.

On to RRIRDRPPRLPRPRPRPMIAPRP, for which the “shrunken log2 fold change” value came out at 0.732.

For RRIRIRPPRLPRPRPRPHRFPRP, the “shrunken log2 fold change” value is -0.62.

Consider RRIRCRPPRLPRPRPRPYLKPRP, for which the “shrunken log2 fold change” value was -1.1.

Take RRIRPRPPRLPRPRPRPLKWPRP: the “shrunken log2 fold change” value was 0.398.

RRIRWRPPRLPRPRPRPSRGPRP: the “shrunken log2 fold change” value stood at 0.532.

Turning to RRIRIRPPRLPRPRPRPRQPPRP, the “shrunken log2 fold change” value was -0.0694.

RRIRNRPPRLPRPRPRPLESPRP: the “shrunken log2 fold change” value is -0.0331.

As to RRIRWRPPRLPRPRPRPDRFPRP, the “shrunken log2 fold change” value was determined as 0.0986.

Turning to RRIRARPPRLPRPRPRPIYKPRP, the “shrunken log2 fold change” value was -0.172.

Turning to RRIRMRPPRLPRPRPRPAMCPRP, the “shrunken log2 fold change” value was 0.124.

Consider RRIRFRPPRLPRPRPRPEHEPRP, for which the “shrunken log2 fold change” value is 0.0369.

Regarding RRIRVRPPRLPRPRPRPHATPRP, the “shrunken log2 fold change” value was found to be 0.204.

On to RRIRSRPPRLPRPRPRPSIWPRP, for which the “shrunken log2 fold change” value turned out to be 0.266.

Regarding RRIRGRPPRLPRPRPRPNDLPRP, the “shrunken log2 fold change” value was determined as 0.338.

RRIRPRPPRLPRPRPRPTQAPRP: the “shrunken log2 fold change” value is 0.0364.

Regarding RRIRKRPPRLPRPRPRPRTTPRP, the “shrunken log2 fold change” value came to 0.792.

Consider RRIRPRPPRLPRPRPRPSDHPRP, for which the “shrunken log2 fold change” value is -0.605.
